Laboratory results as given in patent US20220306762A1 (CRYSTAL BIOSCIENCE, published 2022).

T1: murine CD38 on transiently transfected Expi293 cells (Origene MC208001) (murine, UniProt P56528 1-304)
T1 construct: whole, on cells; also called Murine (FACs)
T1 sequence (looked up): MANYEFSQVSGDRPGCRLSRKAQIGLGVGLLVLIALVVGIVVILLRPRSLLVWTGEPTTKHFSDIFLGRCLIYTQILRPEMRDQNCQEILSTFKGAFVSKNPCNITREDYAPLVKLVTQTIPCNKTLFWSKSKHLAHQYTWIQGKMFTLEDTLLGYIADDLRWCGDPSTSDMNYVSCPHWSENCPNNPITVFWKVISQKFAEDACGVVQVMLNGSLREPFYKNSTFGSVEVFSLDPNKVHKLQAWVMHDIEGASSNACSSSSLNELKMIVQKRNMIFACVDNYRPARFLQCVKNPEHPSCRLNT

T2: His-tagged mouse CD38 (ACRO Biosystems #CD8-M5223) (mouse, UniProt P56528 45-304)
T2 construct: bought recombinant protein with His tag; also called Murine
T2 sequence (looked up): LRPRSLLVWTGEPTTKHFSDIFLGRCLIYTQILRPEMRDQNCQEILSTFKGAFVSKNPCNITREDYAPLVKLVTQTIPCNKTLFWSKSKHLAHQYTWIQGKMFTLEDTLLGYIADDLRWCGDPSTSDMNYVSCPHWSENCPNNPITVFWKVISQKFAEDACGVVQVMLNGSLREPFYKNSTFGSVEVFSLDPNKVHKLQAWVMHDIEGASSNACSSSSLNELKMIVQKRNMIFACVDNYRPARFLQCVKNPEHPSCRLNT


Experiments:
[1] = target: T3, His-tagged cynomolgus monkey CD38 (ACRO Biosystems cat #CD8-05223) (cynomolgus monkey, UniProt Q5VAN0 43-301); assay: SPR, captured scFv-Fc, His-CD38 analyte;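 also: SPR on a Carterra LSA, scFv-Fc captured by anti-human Fc on HC30M chip, His-tagged CD38 (human, mouse, cynomolgus) flowed as analyte in eight 1:2 steps from 400 nM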
T3 construct: bought recombinant protein with His tag

[2] = target: T4, His-tagged human CD38 (ACRO Biosystems cat #CD8-H5224) (human, UniProt P28907 43-300); assay: SPR, captured scFv-Fc, His-CD38 analyte;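 also: SPR on a Carterra LSA, scFv-Fc captured by anti-human Fc on HC30M chip, His-tagged CD38 (human, mouse, cynomolgus) flowed as analyte in eight 1:2 steps from 400 nM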
T4 construct: bought recombinant protein with His tag

[3] = target: T5, human CD38 on transiently transfected Expi293 cells (Origene #SC321273) (human, UniProt P28907 1-300); assay: flow cytometry, transfected Expi293 cells;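 also: antibody binding to Expi293 cells transiently expressing human or murine CD38, antibodies applied at 10 ug/ml for 60 min on ice, read by flow cytometry as percent gated cells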
T5 construct: whole, on cells; also called Human (FACs)

[4] = target: T1, murine CD38 on transiently transfected …; assay: flow cytometry, transfected Expi293 cells;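 also: antibody binding to Expi293 cells transiently expressing human or murine CD38, antibodies applied at 10 ug/ml for 60 min on ice, read by flow cytometry as percent gated cells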
[5] = target: T3, His-tagged cynomolgus monkey CD38 (ACRO …); assay: ELISA, coated His-CD38
[6] = target: T4, His-tagged human CD38 (ACRO Biosystems …); assay: ELISA, coated His-CD38
[7] = target: T2, His-tagged mouse CD38 (ACRO Biosystems …); assay: ELISA, coated His-CD38
[8] = target: T2, His-tagged mouse CD38 (ACRO Biosystems …); assay: SPR, captured scFv-Fc, His-CD38 analyte;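 also: SPR on a Carterra LSA, scFv-Fc captured by anti-human Fc on HC30M chip, His-tagged CD38 (human, mouse, cynomolgus) flowed as analyte in eight 1:2 steps from 400 nM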

Row | Binder | Kd [1] | Kd [2] | FACs 10 ug/ml (percent gated) [3] | FACs 10 ug/ml (percent gated) [4] | ELISA 1 ug/ml [5] | ELISA 1 ug/ml [6] | ELISA 1 ug/ml [7] | Kd [8]
1 | 40769p1.1.B12 (scFv, V domains shown, tested as scFv-Fc supernatant) VH: EVQLLESGGGLIQPGGSLRLSCTASGFDFSSYGMHWVRQAPGKGLEWVGIISDSGGTTYYADSVKGRFTISRDNSKNTMYLQMNSLRAEDTALYYCASYIMDVWGQGITVTVSS VL: QSVLTQPPSASGTPGQRVTISCSGSSSNVGGNSVYWYQQLPGTAPKLLFYGNHRRPSGVPDRFSGSKSGTSASLAISGLQSEDEADYYCAVWDDSLNAWVFGGGTKLTVL | 135 nM | 32.4 nM | 71.1% | 31.9% | 1.91 | 1.56 | 0.472 | –
2 | 40769p1.1.H1 (scFv, V domains shown, tested as scFv-Fc supernatant) VH: EVQLLESGGGLVQPGGSLRLSCAASGFTFSDYWMNWVRQAPGKGLEWVSTISSGGSMIYHADSVKGRFTISRDNSKNTLYLQMNSLRPEDTAVYYCAKDNWNDYYGMDVWGQGTTVTVSS VL: QSVLTQPPSASGTPGQRVNISCSGSSSNIRYNYVYWYQQVPGTAPKLLIYKDDQRPSGVPDRFSGSKSGTSASLAISELQSEDEADYYCATWDGSLNARVFGGGTKLTVL | 59.5 nM | 85.7 nM | 76.2% | 3.13% | 2.05 | 1.86 | 0.049 | –
3 | 40566p1.A9 (scFv, V domains shown, tested as scFv-Fc supernatant) VH: not shown VL: EIVMMQSPATLSVSPGERATFSCRASQSVNSKLAWYQQKPGQAPRLLIYGASRRATGIPDRFSGSGSGTEFTLTISSLQSEDFAVYYCQQYYDWPPLTFGGGTKVEIK | – | – | 19.1% | 75.9% | 1.88 | 1.87 | 2.02 | 0.918 nM
4 | 40566p1.A12 (scFv, V domains shown, tested as scFv-Fc supernatant; also called 40566p1.Al2) VH: DVQLVESGGGVVRPGESLRLSCAASGFTFDNYDMTWVRQAPGEGLEWVSFISSRGTFTYYTDSVKGRFTISRDNSKNTLYLQMNSLRAEDTAIYYCTKDSGEYYFFDYWGLGTLVTVSS VL: EIVMTQSPATLSVSPGERATFSCRASQSVNSKLAWYQQKPGQAPRLLIYDASRRATGIPDRFSGSGSGTEFTLTISSLQSEDFAVYYCQQYYDWPPLTFGGGTKVEIK | – | – | 25.2% | 72.6% | 1.89 | 1.98 | 1.99 | 1.03 nM
5 | 40769p1.1.G12 (scFv, V domains shown, tested as scFv-Fc supernatant) VH: EVQLLESGGGLVQPGGSLRLSCAASGFTFDDYVMSWVRQAPGKGLEWVSEISESDGSNKYYADSVKGRFIISRDNSKNTLYLQMNSLRAEDTAVYYCARLEPEKYYGMDVWGQGTTVTVSS VL: QSVLTQPPSASGTPGQRVTISCSGSNSNIGNNLVSWYQQLPGTAPKLLIYRHDHRPSGVPDRFSGSKSGTSASLAISGLQSEDEADYYCATWDDSLNGRAFGGGTKLTVL | 11.4 nM | 1.88 nM | 68.4% | 0.16% | 1.08 | 1.45 | 0.056 | –
6 | 40769p1.1.H10 (scFv, V domains shown, tested as scFv-Fc supernatant) VH: EVQLLESGGGLVQPGGSLRLSCAAFGFTFSDYEMNWVRQAPGKGLEWVSSISITGSWTGYADSVKGRFTISRDNSKNTLYLQMNNLRAEDTAVYYCANYKSYYGMDVWGQGTTVTVSS VL: not shown | 2.85 nM | 1.95 nM | 79% | 0.12% | 1.96 | 1.7 | 0.048 | –
